Measurements: the supplement of paper PMC9170038

Tested on: K4 kissing-loop RNA reporter
Experiment: apparent KD of K4 kissing-loop reporter; higher = weaker reporter binding
Settings: Eterna round: R107; input ligand: FMN 200 uM
Protocol: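 RNA-MaP round R107: designed RNA switches with theophylline, tryptophan, arginine or FMN aptamers are transcribed on-chip within common flanks. They are titrated with a labelled K4 kissing-loop RNA reporter in RNA-MaP buffer (100 mM Tris pH 7.5, 80 mM KCl, 4 mM MgCl2), without ligand or with the indicated ligand. Median apparent KD per design.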
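Further: bound reporter read as fluorescence of individual clusters on recovered sequencing chips by microscopy, with normalized cluster intensities fitted with a binding model.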

Point of comparison: “GGUUAAUAGGAGGAUACCAGUACGAAUAAAGUACAUUAAUAGUAGAGUGAUGUUCUAAAGUACCCUUGGCAGCUUAGAGUUAGUU [#19 K4 Theophylline B Exclusion]”, “apparent KD of K4 kissing-loop reporter” value 128 nM. Against it:
- GGCAGUGAUGUUGCCAGUGGCAGAUUAGAAGGAGCGUGGUGAGACACAGGUAGGUCGCUAAUUGAAAUUGCUGUCACUAAAAUGC [#6] — 2.3-fold higher, 292 nM
- GUGAGGAGUGGUGUUGAUUAGGGAGCGGAAGGAGCGCCGAGGAAGGCAGGUAGGUCGCCGGAUUAUAGUGAUGUUAUGAAGAGGG [ExArg.K] — 3.8-fold higher, 482 nM
- UGACUUGCCUGAGGAUAUCUAGGAUAUCCAUAAAAGAAAAUAAUAAUCCAGUGAUGUUGGAGAAGGAGAGAAGGCAGGUAAGUCU [KL-XFMN-B17 #DoubleAptamer #SwitchBubble] — within 1.5-fold, 176 nM
- CAGAACAUAUAUAGAAACUAUAUAUGAGAUACCAGUCAAAUUAAAGACCCUUGGCAGCUCAGGCGAGUGAUGUUCGCAGGCUAAC [Astros-Gfrank-modulation#2] — within 1.5-fold, 95.9 nM
- UGUAUGGACUGAAGGAGCGCUAGGUAUGUGAGUGAUGUUCAUAUAAAUGUAUAAAGGGUUUGGCAGGUAGGUCGCAGUCCAUACU [KL-SSArg B6] — 1.7-fold higher, 213 nM
- AUCAGCCUCAGAAGGAGCGUGAGUUUUAAGAGGCUGGAGUGAUGUUCCAGACAUAACGACUCACAGGUAGGUCGCUGAGACUAGU [Arg B SS t1] — within 1.5-fold, 132 nM
- GGCCCGGGCGCGGCCGCCACUCCCUCGUACCGAAAGGUAUGAUACCGAGUGAUGUUCGGUUGGAGGAGGACCGGGCGCCCGGGCC [#2 Exclusion - Tryptophan B Attempt #4 (HarryS)] — within 1.5-fold, 140 nM
- GCCGUACGCAUGGAUACCAGUCUUUCACGACUGGGCAUGGAGUGAUGUUUCGUGAUGCUAGACCCUUGGCAGCCAUGCGUACGGC — 1.6-fold higher, 201 nM
- UUUUUAUAAGAGGAUACCAGUACAAAUAAAGUACAUUAAUAGUAGAGUGAUGUUCUAAAGUACCCUUGGCAGCUUAGAUUAAGUU [ExTheophylB.D] — within 1.5-fold, 158 nM
- AGGCACGAGCAAGGAUAUUGAGUAGAGUGAUGUUCUGCCUAAGUUGGCUCGUAAGAGCCUUCUUAGCGAGAAGGUGCUCGUGCCU [#2 Same State - FMN A Attempt #27 (HarryS)] — 2.3-fold higher, 297 nM
- UGAGGAGAAUAUGAUACCAGCAGAGAGAGAGAGGAAGUAUAGUGAUGUUAUAUGAGAGAAUGCCCUUGGCAGCAUAAGAAGAAGG [SSTheophylB.B] — within 1.5-fold, 148 nM
- GUACCUUGGAAACAAGGACAGCUCACCGAAGGAGCGCGUGAAAACGCAGGUAGGUCGCGGUAGCGGAGUGAUGUUCCGCGAGGGC [Same State Arginine A GF 20] — within 1.5-fold, 114 nM
- GCUCAGGAGUGAUGUUCCAAGUGAUGUUAACGAGGACCGGUACGGCCGCCACUCGAUACGGCCGGACCGUAAGAUAAACUAGAGC [Same State - Tryptophan A (Freestyle 8)] — 1.5-fold higher, 196 nM
- AAUAAUGAUGUUUAGGAUUUCCGAAUGGAAGGAGCGUGCGAAAGCACAGGUAGGUCGCCAGUGAUGUUGGGACCUGAGCAUCAAA [#SwitchBubble 6 #K4Late] — 5.3-fold higher, 681 nM
- GAUUGAGGAAACUCGAUCUUAUAUCCUAGGCAGGAUAUGCGGAAACGCAGAAGGGCCACCUAGCAGUGAUGUUGCAAGCGAAAGC [Ex FMN A 5] — 1.6-fold higher, 203 nM
- UUCUACGUGCAAGGAUAUCCAUACGCUGCCCAGCGGGUAGCGAUAUAUGGAGUGAUGUUCCAUGUAGGAGAAGGUGCACUGUCCU [Atrea] — within 1.5-fold, 149 nM
- UUAGAGAUCUCAGGAUAUCAGUGAUGUUGGUGUGAAGAUCUGAGAUAGAAUUCUAUCUCAGAUCAAUGAGAAGGGAGAUCUCAUU [AK3.1 Exc FMN B] — 3-fold higher, 385 nM
- CGCAGUGAUGUUGCUAUUAUUCUUGAUUAACGAGGACCGGUACGGCCGCCACUCGAUUUCUAUCUUAUUUUGUGUUAUGUUGAUU [JR_ExcTryptoA_Sub008] — 2.4-fold higher, 306 nM
- GUAGCCCUAUGUGAUACCAGACGGUAUAAAAUCCUGGCGGCCAGUGAUGUUGGCCAUCGCGUCCCUUGGCAGCACCAAGGCUGUA [theeternabot_sameState_KL_Theo_B_18] — within 1.5-fold, 122 nM
- CAACUACCCGGAAGGAGCGCGGGUGUAAAUCAAAGGGCUUGAGUGAUGUUCAAGCGGAACCCGCAGGUAGGUCGCCGGGAAGCCC [Quaneson] — within 1.5-fold, 113 nM
- UCCUGUUGUCAGCCACGAAAGUGGAUUGAUACCAGAGUCGAAAGACUCCCUUGGCAGCGAGUGAUGUUCGCAGCAGGUAAAUAAA [MatMod 4 - Jieux - Exclusion - Theophylline A] — 1.6-fold higher, 211 nM
- GCGGCCCAGCCGGAUACCAGUGACCCGCUGGGAACCGCGGGCCCAGAGUGAUGUUCGGGACACCCUUGGCAGCCGCCUGGGUCGC [#2 Same State - Theophylline B Attempt #18 (HarryS)] — 5.4-fold higher, 689 nM
- AAUAUAGUGAUGUUAUAUAAGAAGGAGUUACGAGGACCGGUACGGCCGCCACUCGAAACGAGUGAGGGUUUGGGAGAUUGGGCCC [SSTryptA.J] — 3.9-fold higher, 493 nM
- UGACUACAAAGGAAAUAAUCCUAGUGAUGUUAGGAUAUGCUGAUAAGCAGAAGGAACUGAGAUCGAAAGAUCUCAAAUGUAGUCU [FmnAX 26 Mat Inspired #SwitchBubble #StaticStem #K4Early] — within 1.5-fold, 131 nM
- GCGAAGUGAUGUUUCGCCAAUAUUUGAUGAAAGGAUAUCUACUUGAAGAGAAGGUUCAUAUGACUCAAUACCUGACUUGGACCCG [theeternabot_sameState_KL_FMN_A_37] — within 1.5-fold, 86.8 nM
- CCGCGGCAAGCUCCGGAACCCAUAUUCGAUACCAGCCUUAUCACGGGCCCUUGGCAGCGAGCGUUAGUGAUGUUAGCGGCAUGGU [theeternabot_sameState_KL_Theo_A_27] — 4.1-fold higher, 528 nM
- AAGCAGUCAGAGAGUGAUGUUCUCAAAUAACGAGGACCGGUACGGCCGCCACUCGAAGACUGCAAGUCCUACGAAAAGUAGGACA [Omei inspired 9] — 1.6-fold lower, 78.7 nM
- CUUGUACAAGUGAUGUUUGUUAUAUCCGAAGGAGCGUCGUACUAGACAGGUAGGUCGCGGAUGAAGAUAGUUUUUUUAAUAUCAU [JR_Nu_SSArginiA_Sub028] — 5.4-fold higher, 687 nM
- GGUCGAGUGAUGUUCGAUGUUAUGCAUUCAGAGGAUAUAGGAUUGGCUAGAAGGCUGAAUCGAUCUUCGAGUGAUGUUCGAGGAU [Same State FMN A GF 8] — within 1.5-fold, 116 nM
- AACUGUCGAGGACAACAUUACUGAGGUGAUACCAGCAUCGAAAGAUGCCCUUGGCAGCACCAACUUGCAGUGAUGUUGCAAGUAA [BrourdMod 9 - Jieux - Exclusion - Theophylline A] — 2.8-fold higher, 356 nM
- ACCUUUUUUGCCAGUGAUGUUGGACAGGAAGGAGCGGGCAUAAGCCCAGGUAGGUCGCCUGUCAACUUUCUUAUAGCCCUAAGGU [KL-XArg-A17] — 2.9-fold higher, 365 nM
- GUAAGACCGGGACUCCAGUGAUGUUGGAGGCAGGAUAUCCAGUCGAGGAGAAGGGCCAGGGAUAUCGAGCUGCUCGGUUUGUAGU [Argeis] — 1.6-fold lower, 81.9 nM
- AAGUGAUGUUGUAGUGAUGUUGUGAUGUUGCAGGAUAUAUAGUGAUGUAGAAGGGUAUGUGCAGUUUUAUUUUUUGAGUGUUGAU [ttytmullin] — 1.8-fold lower, 72.1 nM
- UGACAUUGCUCAGAUACCAGACCUGAGGAUCACCCAGGUGCCAAAACGUACUAAAUAAAGGUCCCUUGGCAGCUGAGCAAUGUCU [TheoBX 13] — 2-fold lower, 63.6 nM
- AGAUUCGACACGGCCGCCACUUGUGGUGGAUUAUCCUAUGUCGAACAUGAGUGAUGUUCAUGUACAAGGACCGGGUGUUGAGUCU [KL-XTryp-B6 #analogue] — 3.7-fold higher, 476 nM
- UUUACCAGUGAUGUUGGCCUAGUAUUUACACGAGGACCGGUACGGCCGCCACUCGCAUUAUCGGACUUUGAUAAGCAUAUUAUAU [theeternabot_sameState_KL_Trp_A_28] — 2.5-fold higher, 317 nM
- GCAAAACAAACGUAGAGUGGAACACAGAGACGAGGACCGGUACGGCCGCCACUCGACGAGGUUUUCAGUGAUGUUGAAAAUUUAG [Exclusion Tryptophan A GF2] — within 1.5-fold, 133 nM
- GCGCGUCAUGUUGGCGGGAACUAAGCCGAUACCAGCCGGGAAACCGGCCCUUGGCAGCGGCGCGCCGGAGUGAUGUUCCGACAGA [#2 Exclusion - Theophylline A Attempt #1 (HarryS)] — 1.8-fold higher, 226 nM
- UGAUAGGACAGAAGGAGCGGUAGUGAUGUUGCCAAAAGGUUAAGGUGUCAAAAGACACCCUACCAGGUAGGUCGCUGUCCUAUCU — within 1.5-fold, 188 nM
- GUUACGCAUGGAAGGAGCGCACUCCGGUUGAUCAACACAGUGAUGUUGUGGUUCAUUCGAAUGCAGGUAGGUCGCCAUGUGUAAC [Ex Arginine B K4 16] — 6.9-fold higher, 877 nM
- AUUUAUUACAGAAGGAGCGUGUAUUUAUAAUCAUUUAUCUUAGCGAGUGAUGUUCGCUUUACACAGGUAGGUCGCUGUUUAUUUA [JR_Nu_ExcArginiB_Sub027] — within 1.5-fold, 110 nM

Same assay, conditions: Eterna round: R107; input ligand: arginine 13.2 mM

Point of comparison: “AUCAGCCUCAGAAGGAGCGUGAGUUUUAAGAGGCUGGAGUGAUGUUCCAGACAUAACGACUCACAGGUAGGUCGCUGAGACUAGU [Arg B SS t1]”, “apparent KD of K4 kissing-loop reporter” value 99.8 nM. Against it:
- GGCAGUGAUGUUGCCAGUGGCAGAUUAGAAGGAGCGUGGUGAGACACAGGUAGGUCGCUAAUUGAAAUUGCUGUCACUAAAAUGC [#6] — 2.8-fold higher, 282 nM
- GUGAGGAGUGGUGUUGAUUAGGGAGCGGAAGGAGCGCCGAGGAAGGCAGGUAGGUCGCCGGAUUAUAGUGAUGUUAUGAAGAGGG [ExArg.K] — 5.2-fold higher, 523 nM
- UGACUUGCCUGAGGAUAUCUAGGAUAUCCAUAAAAGAAAAUAAUAAUCCAGUGAUGUUGGAGAAGGAGAGAAGGCAGGUAAGUCU [KL-XFMN-B17 #DoubleAptamer #SwitchBubble] — within 1.5-fold, 114 nM
- CAGAACAUAUAUAGAAACUAUAUAUGAGAUACCAGUCAAAUUAAAGACCCUUGGCAGCUCAGGCGAGUGAUGUUCGCAGGCUAAC [Astros-Gfrank-modulation#2] — within 1.5-fold, 109 nM
- UGUAUGGACUGAAGGAGCGCUAGGUAUGUGAGUGAUGUUCAUAUAAAUGUAUAAAGGGUUUGGCAGGUAGGUCGCAGUCCAUACU [KL-SSArg B6] — within 1.5-fold, 122 nM
- GGCCCGGGCGCGGCCGCCACUCCCUCGUACCGAAAGGUAUGAUACCGAGUGAUGUUCGGUUGGAGGAGGACCGGGCGCCCGGGCC [#2 Exclusion - Tryptophan B Attempt #4 (HarryS)] — within 1.5-fold, 129 nM
- GCCGUACGCAUGGAUACCAGUCUUUCACGACUGGGCAUGGAGUGAUGUUUCGUGAUGCUAGACCCUUGGCAGCCAUGCGUACGGC — 1.6-fold higher, 163 nM
- UUUUUAUAAGAGGAUACCAGUACAAAUAAAGUACAUUAAUAGUAGAGUGAUGUUCUAAAGUACCCUUGGCAGCUUAGAUUAAGUU [ExTheophylB.D] — 2.7-fold higher, 268 nM
- AGGCACGAGCAAGGAUAUUGAGUAGAGUGAUGUUCUGCCUAAGUUGGCUCGUAAGAGCCUUCUUAGCGAGAAGGUGCUCGUGCCU [#2 Same State - FMN A Attempt #27 (HarryS)] — 5.1-fold higher, 513 nM
